The test system of data set [1] is Jurkat T cells. Briefly: Apoptosis/toxicity of peptide alone in Jurkat T cells, Annexin V/PI. The format is cell-based. How it is done: FIG. 8A: Flow cytometry histogram showing propidium iodide (PI) (FL3) labeling of Jurkat T cells without or with 200 μM of hGal-7(129-135). FIG. 8B: Histogram showing the average percentage of Annexin-V (AV) positive Jurkat T cells in the presence of increasing concentrations of […]. FIG. 8C: Flow cytometry histogram showing PI (FL3) labeling of Jurkat T cells without or with 200 μM of PACAP28-38 FIG. 8D: Histogram showing the average percentage of AV-positive Jurkat T cells in the presence of increasing concentrations of PACAP28-38. The percentage of cell death was obtained as described above. Error bars represent standard deviation. Significance was calculated with respect to AF samples. Results are representative of three independent experiments.
Apoptosis assays with Annexin V/PI staining. Apoptosis was measured by flow cytometry using FITC-labeled Annexin V (Biolegend®, San Diego, Calif., USA) and propidium iodide. Briefly, the corresponding dilutions of recombinant hGal-7 and hGal-7(129-135) peptides were pre-incubated for 1 h at 4° C. in serum-free RPMI 1640 medium. 2.5×10^5 Jurkat cells were then harvested in the same medium and incubated with their corresponding dilutions at 37° C. for 4 h. Cells were washed once in PBS and once in binding buffer (0.01 M HEPES, 0.14 M NaCl, 2.5 mM CaCl2, pH 7.4). Cells were then incubated for 15 min with Annexin V in the dark at room temperature. A total of 400 μL of binding buffer containing 0.25 μg/mL propidium iodide was added to the cells before analysis by flow cytometry.

Another data set has as its target T1, hGal-7 homodimer (Homo sapiens, UniProt P47929).
T1 construct: made in house; host or cells: E. coli BL21 (DE3)
Briefly: hGal-7 homodimer disruption, low-SDS native gel electrophoresis / Western blotting. The format is biochemical. As to conditions: recombinant hGal-7 0.5 μM, increasing peptide concentrations. How it is done:
Production of recombinant hGal-7 and hGal-1. Human Gal-7 cDNA was cloned into pET-22b(+) using Ndel and HindIII restriction enzymes. Human pET-Gal-1 vector was generously donated by Dr. S. Sato (McGill University, QC, Canada). The proteins were produced in E. coli BL21 (DE3) cells at 37° C. Isopropyl p-D-1-thiogalactopyranoside (IPTG) (1 mM) was added to the bacterial culture at OD600nm=0.6-0.7 and then incubated for 4 h at 37° C. to allow protein production. Bacterial pellets were resuspended in lysis buffer (0.7 mg/mL lysozyme, 10 mM Tris pH 8, 100 mM NaCl, 1 mM EDTA, 1 mM DTT and a protease inhibitor cocktail) and then incubated for 1 h at 37° C. prior to centrifugation for 30 min at 15,000×g (4° C.). The supernatant was then filtered with 500 mL bottle top filter ([…]) (Corning®, New York, N.Y., USA) and then ran through a lactose-agarose column (Sigma®, St. Louis, Mo., USA). The protein was eluted in 1 mL fractions with 150 mM lactose solution. Purified fractions were analyzed by SDS-PAGE. The hGal-7 was then concentrated and purified using Centrifugal filter units (Amicon® Ultra-15, 10K) (EMD®, Etobicoke, ON) in 20 mM potassium phosphate at pH 7.1. All subsequent experiments with the recombinant proteins were performed in the same buffer solution unless mentioned otherwise. Brilliant Coomassie blue was purchased from BioRad® (Bio-Rad Laboratories®, Mississauga, ON, Canada). The recombinant human Bcl-2 protein fragment was purchased from Abcam® (Abcam®, Cambridge, UK, Cat #ab73696).
Western blotting. For the apoptosis tests, whole-cell extracts were homogenized and resuspended in RIPA buffer (Thermo Fisher Scientific®, Rockford, Ill., USA) containing protease inhibitors (Roche®, Laval, QC, Canada). Equal amounts of whole-cell extracts (25 μg) were separated on SDS-PAGE and transferred onto nitrocellulose membranes (Bio-Rad Laboratories®). The membranes were first blocked with 5% milk [w/v] in TBS/0.5% Tween® 20 [v/v] for 1 h at room temperature and subsequently blotted overnight in a solution of TBS containing 3% BSA [w/v] and 0.5% Tween 20 [v/v]. The following antibodies were used: a rabbit anti-Poly-(ADP-ribose) polymerase (PARP)-1 (p25) polyclonal antibody (1:5000; Epitomics®, Burlingame, Calif., USA) and a mouse anti-β-actin (1:10000; Sigma-Aldrich®, St-Louis, Mo., USA). Secondary antibodies consisted of horseradish peroxidase-conjugated donkey anti-rabbit (GE Healthcare®, Buckinghamshire, England) and sheep anti-mouse (GE Healthcare®) IgG. Detection was performed using the enhanced chemiluminescence method (GE Healthcare®). For the recombinant protein tests, each peptide was dissolved and maintained in 20 mM potassium phosphate at pH 7.1. The recombinant proteins and peptide dilutions were pre-incubated for 1 h at 4° C. prior to gel migration. The native polyacrylamide gel was made without SDS to allow molecular weight differentiation between the dimer and monomer. The following antibodies were used: a goat anti-Gal-7 antibody (1:10000; R&D Systems®, Minneapolis, Minn., USA), a mouse anti-Gal-1 antibody (1:10000; Proteintech®, Chicago, Ill., USA) and a rabbit anti-Bcl-2 antibody (1:1000; Abeam®, Cambridge, UK). Secondary antibodies consisted of donkey anti-goat (R&D Systems®) or sheep anti-mouse and sheep anti-rabbit (GE Healthcare®) IgG. Detection was performed as described above.
To determine whether these peptides could inhibit the formation of the hGal-7 homodimer, recombinant hGal-7 (0.5 μM) was incubated with increasing concentrations of hGal-7(13-25), hGal-7(85-102), hGal-7(95-108) or hGal 7(129-135) and the formation of homodimers was measured. To measure the ability of the peptides to disrupt the formation of hGal-7 dimers, a mild denaturing (low SDS) native gel electrophoresis, a commonly used approach to visualize monomer-dimer equilibrium, was used (FIG. 1A and FIG. 6).

The test system of data set [2] is Jurkat T cells. The experiment in a line: hGal-7-induced apoptosis of Jurkat T cells, PARP-1 cleavage by Western blotting. It counts as cell-based. As to conditions: 4 h at 37° C., serum-free RPMI, FIG. 5A. How it is done:
Western blotting. For the apoptosis tests, whole-cell extracts were homogenized and resuspended in RIPA buffer (Thermo Fisher Scientific®, Rockford, Ill., USA) containing protease inhibitors (Roche®, Laval, QC, Canada). Equal amounts of whole-cell extracts (25 μg) were separated on SDS-PAGE and transferred onto nitrocellulose membranes (Bio-Rad Laboratories®). The membranes were first blocked with 5% milk [w/v] in TBS/0.5% Tween® 20 [v/v] for 1 h at room temperature and subsequently blotted overnight in a solution of TBS containing 3% BSA [w/v] and 0.5% Tween 20 [v/v]. The following antibodies were used: a rabbit anti-Poly-(ADP-ribose) polymerase (PARP)-1 (p25) polyclonal antibody (1:5000; Epitomics®, Burlingame, Calif., USA) and a mouse anti-β-actin (1:10000; Sigma-Aldrich®, St-Louis, Mo., USA). Secondary antibodies consisted of horseradish peroxidase-conjugated donkey anti-rabbit (GE Healthcare®, Buckinghamshire, England) and sheep anti-mouse (GE Healthcare®) IgG. […]
(§1) It was thus tested whether hGal-7(129-135) could modulate the binding of hGal-7 on Jurkat T cells, a cell model that is commonly used to test the pro-apoptotic activity of galectins. For this purpose, recombinant hGal-7 was labeled with fluorescein isothiocyante (FITC) and its binding on the surface of Jurkat T cells was measured by flow cytometry in absence or presence of increasing concentrations of hGal-7(129-135). […]
Background: Immunoblotting shows a protein as a band on a membrane.

The subject of data set [3] is Jurkat T cells. The experiment in a line: FITC-labeled hGal-7 binding on Jurkat T cells, flow cytometry. The note with it: FITC-labeled hGal-7 0.1 μM pre-incubated with peptide, FIG. 4. It counts as cell-based. The protocol: FITC conjugation and hGal-7 binding assay. To assess hGal-7 binding onto Jurkat T cells, 5 μL of a 1.25 mg/mL fluorescein isothiocyanate (FITC)/DMSO solution was added to 300 μL of 1.7 μg/μL recombinant hGal-7 in a 0.1 M NaHCO3 pH 9.2 solution and incubated for 1 h at room temperature on a roller. FITC-labeled hGal-7 was then purified using a PD-10 Sepharose® column (GE healthcare) and eluted with PBS containing 0.01% [v/v] sodium azide. FITC-labeled hGal-7 (0.1 μM) was then pre-incubated with hGal-7(129-135) (or related peptides) in 20 mM potassium phosphate buffer pH 7.1 for 1 h at 4° C. Jurkat cells (5×10^5 cells per sample) were harvested in PBS-0.01% [v/v] sodium azide and incubated for 30 min on ice with the FITC-labeled hGal-7 with and without peptides. Cells were then washed with PBS-0.01% [v/v] sodium azide and resuspended in 400 μL of the same buffer and analyzed on a FACSCalibur® (BD Biosciences®).
as §1
(In flow cytometry, cells or beads pass a laser one at a time.)

Where no end group is shown, it is not given here.

T1 sequence (P47929 2-136 limits assumed): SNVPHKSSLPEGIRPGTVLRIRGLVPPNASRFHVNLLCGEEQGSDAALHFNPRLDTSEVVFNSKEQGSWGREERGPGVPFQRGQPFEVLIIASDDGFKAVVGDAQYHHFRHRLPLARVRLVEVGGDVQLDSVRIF

As to “PACAP(28-38): control peptide selected based on similarity in amino acid length and minimal toxicity on the cell line (GKRYKQRVKNK) [reference compound]”, the “toxicity in Jurkat T cells” value with Jurkat T cells [1] (PI labeling at 200 μM, Annexin V at increasing concentrations, FIGS. 8A to 8D) is on record as “do not induce toxicity in Jurkat T cells”. Besides, the “induction of apoptosis by peptide alone” value in the data set on Jurkat T cells [1] (peptide alone, FIG. 8) is recorded as “did not induce apoptosis in Jurkat T cells”. Further, the “disruption of hGal-7 homodimers (in words)” value (“disruption” below) with hGal-7 homodimer was “No such effect was observed”. For the same substance, the “inhibition of hGal-7-induced apoptosis, PARP-1 cleavage” value in the data set on Jurkat T cells [2] is recorded as “No such effect was observed”. Further, the “fluorescent intensity of Jurkat T cells due to FITC-labeled hGal-7 binding” value with Jurkat T cells [3] was “No such effect was observed”. Take “H-Ile-Arg-Pro-Gly-Thr-Val-Leu-Arg-Ile-Arg-Gly-Leu-Val-NH2 (H-IRPGTVLRIRGLV-NH2; listed as Homo sapiens) [hGal-7(13-25), peptide corresponding to residues 13-25 of hGal-7]”: the “disruption” value with hGal-7 homodimer is recorded as “less potent than hGal-7(129-135)”. As for “L-A-S-V-R-I-F-NH2 (LASVRIF-NH2; listed as Homo sapiens) [[Ala^130]hGal-7(129-135), alanine substitute peptide of hGal-7(129-135)]”, the “disruption” value with hGal-7 homodimer is recorded as “abrogates the ability of the peptide to disrupt hGal-7 homodimers”. Still for that read-out and setting: the entry for “H-Phe-Glu-Val-Leu-lle-Ile-Ala-Ser-Asp-Asp-Gly-Phe-Lys-Ala-Val-Val-Gly-NH2 (H-FEVLIIASDDGFKAVVG-NH2; listed as Homo sapiens) [hGal-7(85-102), peptide corresponding to residues 85-102 of hGal-7]” is “less potent than hGal-7(129-135)”. Same read-out and setting: the entry for “H-Asp-Gly-Phe-Lys-Ala-Val-Val-Gly-Asp-Ala-Gln-Tyr-His-His-NH2 (H-DGFKAVVGDAQYHH-NH2; listed as Homo sapiens) [hGal-7(95-108), peptide corresponding to residues 95-108 of hGal-7]” is “less potent than hGal-7(129-135)”.

Values taken from US11319374B2, “Inhibitors of prototypic galectin dimerization and uses thereof” (INSTITUT NATIONAL DE LA RECHERCHE SCIENTIFIQUE, priority 2015, dated 2022).
